Biological target: T1, recombinant human CCN6 (rhCCN6) protein, full length (human, UniProt O95389 24-354)
T1 sequence (looked up): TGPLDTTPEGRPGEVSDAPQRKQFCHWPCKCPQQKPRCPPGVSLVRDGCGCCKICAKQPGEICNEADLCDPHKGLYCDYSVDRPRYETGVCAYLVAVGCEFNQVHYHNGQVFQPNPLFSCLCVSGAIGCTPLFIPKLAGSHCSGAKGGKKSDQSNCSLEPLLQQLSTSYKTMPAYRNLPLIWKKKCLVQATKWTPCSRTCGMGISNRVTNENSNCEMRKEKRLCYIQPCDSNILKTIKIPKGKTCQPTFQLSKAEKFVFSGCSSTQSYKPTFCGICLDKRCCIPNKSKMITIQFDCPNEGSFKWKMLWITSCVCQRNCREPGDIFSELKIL
Assay: SPR

- Kd: 200 nM
B1: disulfide linked homodimer of biotin labeled rhBMP4 (Bio-BMP4) (ligand, human, UniProt P12644 293-408, looked up)
chain: SPKHHSQRARKKNKNCRRHSLYVDFSDVGWNDWIVAPPGYQAFYCHGDCPFPLADHLNSTNHAIVQTLVNSVNSSIPKACCVPTELSAISMLYLDEYDKVVLKNYQEMVVEGCGCR
modifications: biotin label (site not stated)
